Measurements published in patent US20260139049A1 (PEDIATRIC IMMUNITY AND HEALTHCARE GUANGZHOU BIOTECHNOLOGY, published 2026).

How the values were obtained:
human CLDN6 [1] = target: T1, human CLDN6 (human, UniProt P56747 1-220); assay: FACS on HEK293T-CLDN6 cells
T1 construct: whole, on cells; four-transmembrane protein; also called claudin-6; HEK293T-CLDN6
T1 sequence (looked up): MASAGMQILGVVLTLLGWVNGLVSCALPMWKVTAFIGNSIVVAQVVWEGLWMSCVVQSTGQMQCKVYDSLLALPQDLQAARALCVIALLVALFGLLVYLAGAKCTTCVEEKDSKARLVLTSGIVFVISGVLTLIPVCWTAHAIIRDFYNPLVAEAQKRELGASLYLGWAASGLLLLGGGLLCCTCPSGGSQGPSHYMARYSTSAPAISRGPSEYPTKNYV
Protocol: (§1) To detect a binding capacity of a chimeric or humanized antibody to CLDN6, a CLDN6-expressing cell line HEK293T-CLDN6 and a CLDN6-negative control cell line HEK293T were washed three times with PBS. 1×10⁵ test cells and 50 μL of an antibody solution to be tested were added to a 96-well plate, and incubated at 4° C. for 1 h. The cells were then washed three times with PBS. […] Finally, cells were washed three times with PBS, and signals were read using FACS.
(§2) An EC50 value (a concentration of an antibody that binds to half of binding sites at equilibrium) is calculated through nonlinear regression.

human CLDN9 = target: T2, human CLDN9 (human, UniProt O95484 1-217); assay: FACS on 293T-CLDN9 cells, 10 µg/mL
T2 construct: whole, on cells; also called HEK293T-CLDN9
T2 sequence (looked up): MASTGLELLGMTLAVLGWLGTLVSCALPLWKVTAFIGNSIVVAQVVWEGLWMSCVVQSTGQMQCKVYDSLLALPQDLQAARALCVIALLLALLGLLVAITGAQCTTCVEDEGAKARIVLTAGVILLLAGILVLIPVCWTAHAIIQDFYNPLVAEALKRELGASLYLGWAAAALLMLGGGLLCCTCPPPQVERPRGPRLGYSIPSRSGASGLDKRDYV
Protocol: (§3) 50 μL of an antibody to be tested was added to a 96-well plate, then 1× 10⁵ cells were added to each well, and incubation was conducted at 4° C. for 1 h. Cells were washed three times with PBS. […] Finally, cells were washed three times with PBS, and signals were read using FACS. Binding capacities of the antibody to CLDN9, CLDN3, and CLDN4 were analyzed separately based on detection data.

human CLDN6 [2] = target: T1, human CLDN6; assay: FACS on HepG2 tumour cells; target on the cells taken as CLDN6
Protocol: as §3, with “1×10⁵” for “1× 10⁵”, “A binding capacity” for “Binding capacities”, “each tumor cell was” for “CLDN9, CLDN3, and CLDN4 were”, “analyzed” for “analyzed separately”

human CLDN6 [3] = target: T1, human CLDN6; assay: FACS on 293T-CLDN6 cells, 10 µg/mL
human CLDN6 [4] = target: T1, human CLDN6; assay: FACS on HepG2 tumour cells; target on the cells taken as CLDN6; remark: listed apart in the source
Protocol: as §3, with “1×10⁵” for “1× 10⁵”, “A binding capacity” for “Binding capacities”, “each tumor cell was” for “CLDN9, CLDN3, and CLDN4 were”, “analyzed” for “analyzed separately”

human CLDN6 [5] = target: T1, human CLDN6; assay: FACS on PA-1 tumour cells; target on the cells taken as CLDN6
Protocol: as §3, with “1×10⁵” for “1× 10⁵”, “A binding capacity” for “Binding capacities”, “each tumor cell was” for “CLDN9, CLDN3, and CLDN4 were”, “analyzed” for “analyzed separately”

human CLDN6 [6] = target: T1, human CLDN6; assay: FACS on HEK293T-CLDN6 cells; remark: listed apart in the source
Protocol: as §1, §2

human CLDN6 [7] = target: T1, human CLDN6; assay: FACS on CLDN6 cells (same value as Table 3, HEK293T-CLDN6)
human CLDN6 [8] = target: T1, human CLDN6; assay: FACS on HepG2 tumour cells, 5 µg/mL; target on the cells taken as CLDN6
Protocol: as §3, with “1×10⁵” for “1× 10⁵”, “A binding capacity” for “Binding capacities”, “each tumor cell was” for “CLDN9, CLDN3, and CLDN4 were”, “analyzed” for “analyzed separately”

human CLDN6 [9] = target: T1, human CLDN6; assay: FACS on HEK293T-CLDN6 cells; remark: listed apart in the source
Protocol: as §1, §2

EC50 (human CLDN6 [1]): 0.0461 µg/mL | Geom.Mean (human CLDN9): 3810 | EC50 (human CLDN6 [2]): 0.959 µg/mL | Geom.Mean (human CLDN6 [3]): 44300 | EC50 (human CLDN6 [4]): 0.583 µg/mL | EC50 (human CLDN6 [5]): 0.141 µg/mL | EC50 (human CLDN6 [6]): 0.0469 µg/mL | EC50 (human CLDN6 [7]): 0.213 µg/mL | Geom.Mean (human CLDN6 [8]): 970 | EC50 (human CLDN6 [9]): 0.213 µg/mL
B1: IMAB027 (antibody, human IgG1, kappa, V domains shown)
VH: EVQLQQSGPELVKPGASMKISCKASGYSFTGYTMNWVKQSHGKNLEWIGLINPYNGGTIYNQKFKGKATLTVDKSSSTAYMELLSLTSEDSAVYYCARDYGFVLDYWGQGTTLTVSS
VL: IVLTQSPAIMSASPGEKVTITCSASSSVSYLHWFQQKPGTSPKLWVYSTSNLPSGVPARFGGSGSGTSYSLTISRMEAEDAATYYCQQRSIYPPWTFGGGTKLEIKR
notes: variable regions of mAb206-LCC on human IgG1 constant regions; also called benchmark antibody; control antibody
